This is an account of results in PMC1904285.

For data set [1], the target named is T1, His6-CspB (major cold shock protein) (Bacillus subtilis, UniProt P32081 1-67). The experiment in a line: ITC.
In the next data set the target is CspB (untagged) (Bacillus subtilis, UniProt P32081 1-67). The experiment in a line: EMSA. On the technique in general: Mobility shift assays separate free from complexed probe on a gel.
The target in data set [2] is T1, His6-CspB (major cold shock protein). The experiment in a line: EMSA.
Another data set concerns the target T2, SsoSSB-Cy5 (Sulfolobus solfataricus, UniProt Q97W73 1-148).
T2 sequence: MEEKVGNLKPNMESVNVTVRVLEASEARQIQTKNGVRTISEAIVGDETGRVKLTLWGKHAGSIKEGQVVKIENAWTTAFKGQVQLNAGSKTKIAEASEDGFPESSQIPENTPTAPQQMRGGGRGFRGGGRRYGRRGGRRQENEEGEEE
Kind of data set: EMSA.

For another data set, the target named is T3, SsoSSB (Sulfolobus solfataricus, UniProt Q97W73 1-148).
T3 sequence: T2 sequence
The experiment in a line: EMSA.

In data set [3] the target is His6-CspB (major cold shock protein);SsoSSB (Bacillus subtilis;Sulfolobus …, UniProt P32081;Q97W73 1-67;1-148, |). Kind of data set: EMSA.
Data set [4] addresses T1, His6-CspB (major cold shock protein). The experiment in a line: competition EMSA.

T1 sequence (P32081 whole entry): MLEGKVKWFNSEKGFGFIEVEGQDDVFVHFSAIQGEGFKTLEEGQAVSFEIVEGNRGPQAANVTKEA
Sequence of CspB (untagged) (P32081 whole entry): as above
Sequence of His6-CspB (major cold shock protein);SsoSSB (P32081 whole entry, one chain of several): as the sequence (P32081 whole entry) above

As to GTCTTTT (ssDNA) [ITC2 (consensus variant GTCTTTT)], the binding result in data set [1] was “binds”.

As to GTCTTTG (ssDNA) [ITC1 (consensus variant GTCTTTG)], the binding result in data set [1] is “binds”.

In the case of ATCCTACTGATTGGCCAAGGTGCTG (ssDNA) [ONc], the binding result (with CspB (untagged); in data set [2]; with SsoSSB-Cy5; with SsoSSB) was “binds” each time.

On to AAAAAAAAAAGCACTTAAAAAAAAA (ssDNA) [ON-Mt], for which the binding result in data set [3] and in data set [4] was “binds” each time.
